Experimental findings from US20180002425A1 (Scripps Research, published 2018) are described below.

For orientation: Kd means the free concentration of one partner at which half of the binding sites on the other are occupied at equilibrium, for simple one-to-one binding. A lower Kd goes with higher affinity.

Experiment [1] addresses T1, extracellular domain of hEpoR-his tag (human, UniProt P19235 25-250).
T1 construct: extracellular domain; also called EpoR ECD-his tag monomer protein; His-tagged monomeric EpoR; not shown: His tag
T1 sequence (looked up): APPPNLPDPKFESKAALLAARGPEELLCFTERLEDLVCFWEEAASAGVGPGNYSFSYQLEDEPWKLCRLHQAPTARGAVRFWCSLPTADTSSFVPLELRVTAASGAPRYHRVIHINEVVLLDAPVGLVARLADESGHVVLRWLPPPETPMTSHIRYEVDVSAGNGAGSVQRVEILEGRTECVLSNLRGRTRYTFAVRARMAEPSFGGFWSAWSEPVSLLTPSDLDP
The experiment can be described thus: pull-down: antibody mixed with hEpoR extracellular domain-his tag, captured on His-tag Dynabeads, bound antibody detected with anti-Fc:HRP (OD405nm); control is beads without EpoR. As for the experimental part: The single antibodies V-1 and V-3 and the bispecific antibody V-1/V-3 (BsAb) that were generated using “Knob-into-ole” technology were purified from HEK293F cells. (A) The purified proteins were analyzed using 7% Tris-Acetate gels with TA running buffer. (B) Antibody binding to the EpoR was tested by a “pull down” experiment. Different antibodies were mixed with the extracellular domain of hEpoR-his tag. The complexes were captured with His-tag Dynabeads and bound antibodies were detected with an anti-Fc:HRP antibody.

Experiment [2] concerns the target T1, extracellular domain of hEpoR-his tag. In words: BLI (Octet Red), scFv-Fc captured on anti-human IgG sensors, EpoR ectodomain monomer titrated, 1:1 model; V-1; not competed by EPO. As for the experimental part: (§1) Kinetic characterization using bio-layer interferometry (BLI). Experiments were performed using the Octet Red (Fortebio Inc.). The scFv Fc fusion proteins were captured with anti-Human IgG Capture (AHC) Biosensors (kinetics grade Cat# 18-5060). A titration series of the purified EpoR ectodomain monomer protein was measured against the immobilized scFv Fc in the association/dissociation cycle. The data set was fit to a 1:1 binding model to determine ka, kd and Kd.
(§2) Thus, both EPO and the bispecific antibody achieve the obligatory asymmetric binding to the EpoR that is necessary for full agonist activity, albeit in different ways. In the case of EPO, asymmetry is achieved by the use of two distinct interfaces (site 1 and site 2) that bind with different affinities to a single site in the homodimeric EpoR (Watowich, J. Invest. Med. 59:1067, 2011). By contrast, the heterodimeric bispecific antibody achieves asymmetry by using its two different binding specifies to interact with different sites on the EpoR (FIG. 6).
In general terms: BLI is a label-free optical method that tracks binding on a fibre tip over time.

Experiment [3] shares this target. The experiment can be described thus: BLI (Octet Red), scFv-Fc captured on anti-human IgG sensors, EpoR ectodomain monomer titrated, 1:1 model; V-3; competed by EPO. As for the experimental part:
as §1, §2

Experiment [4] concerns the target T2, wild-type human TpoR on Ba/F3-hMpl cells (human, UniProt P40238 26-635).
T2 sequence (looked up): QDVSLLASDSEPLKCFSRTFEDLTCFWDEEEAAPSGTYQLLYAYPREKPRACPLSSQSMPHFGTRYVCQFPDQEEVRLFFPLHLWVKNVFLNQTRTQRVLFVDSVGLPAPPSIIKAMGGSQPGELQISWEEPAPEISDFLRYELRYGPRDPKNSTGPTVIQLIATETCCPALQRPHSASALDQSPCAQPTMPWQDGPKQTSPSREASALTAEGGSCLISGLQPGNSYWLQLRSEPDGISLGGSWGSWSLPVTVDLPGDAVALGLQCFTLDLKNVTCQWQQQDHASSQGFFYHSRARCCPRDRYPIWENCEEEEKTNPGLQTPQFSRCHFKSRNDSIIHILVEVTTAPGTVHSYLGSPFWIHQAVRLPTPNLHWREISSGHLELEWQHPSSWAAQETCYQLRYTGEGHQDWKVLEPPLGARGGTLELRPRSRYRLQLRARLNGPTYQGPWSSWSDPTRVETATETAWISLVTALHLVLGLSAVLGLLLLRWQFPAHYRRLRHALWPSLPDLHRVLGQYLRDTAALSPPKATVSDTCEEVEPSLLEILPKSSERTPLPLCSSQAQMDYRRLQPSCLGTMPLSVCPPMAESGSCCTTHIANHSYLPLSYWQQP
The experiment can be described thus: cell-based or functional assay.

Experiment [5] addresses T3, TpoR-IL6ST chimeric receptor on HEK293T SIE-bla reporter cells (clone CR2-9) (human, UniProt P40238 26-527; P40189 651-918, limits assumed).
T3 sequence (looked up): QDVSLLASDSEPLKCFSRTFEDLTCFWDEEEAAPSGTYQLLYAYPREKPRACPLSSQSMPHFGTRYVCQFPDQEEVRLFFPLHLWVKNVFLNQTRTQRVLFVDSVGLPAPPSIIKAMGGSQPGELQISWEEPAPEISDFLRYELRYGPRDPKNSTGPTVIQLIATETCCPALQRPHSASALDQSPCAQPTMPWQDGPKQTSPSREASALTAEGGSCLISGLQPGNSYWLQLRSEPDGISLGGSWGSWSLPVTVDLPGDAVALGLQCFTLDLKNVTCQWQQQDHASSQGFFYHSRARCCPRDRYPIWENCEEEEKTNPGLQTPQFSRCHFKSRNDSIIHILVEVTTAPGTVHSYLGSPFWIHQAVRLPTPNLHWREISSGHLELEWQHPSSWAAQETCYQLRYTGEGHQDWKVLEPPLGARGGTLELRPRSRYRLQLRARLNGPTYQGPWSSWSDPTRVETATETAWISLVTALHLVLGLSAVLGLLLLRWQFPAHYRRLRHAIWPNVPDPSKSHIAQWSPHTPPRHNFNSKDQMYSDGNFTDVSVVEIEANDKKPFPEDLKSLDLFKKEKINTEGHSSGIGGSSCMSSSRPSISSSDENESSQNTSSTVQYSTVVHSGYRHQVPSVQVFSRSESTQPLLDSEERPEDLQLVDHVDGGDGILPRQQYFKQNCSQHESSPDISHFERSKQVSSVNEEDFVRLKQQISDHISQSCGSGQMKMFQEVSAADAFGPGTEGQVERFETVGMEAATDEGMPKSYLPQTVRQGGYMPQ
The experiment can be described thus: cell-based or functional assay.

B1: heterodimeric bispecific antibody V-1/V-3 (bispecific antibody, V domains shown)
VH 1: MAQVQLVQSGAEVKKPGSSVKVSCKASGGTFSSYAISWVRQAPGQGLEWMGGIIPIFGTANYAQKFQGRVTITADESTSTAYMELSSLRSEDTAVYYCARDQGYYYGSGGLDYWGQGTLVTVSS
VL 1: DIQMTQSPSSLSASVGDRVTITCRASQSISSYLNWYQQKPGKAPKLLIYAASSLQSGVPSRFSGSGSGTDFTLTISSLQPEDFATYYCLQDYNYPLTFGGGTKVEIK
VH 2: MAQVQLVQSGAEVKKPGASVKVSCKASGYTFTSYGISWVRQAPGQGLEWMGWISAYNGNTNYAQKLQGRVTMTTDTSTSTAYMELRSLRSDDTAVYYCARGVAAALSYWGQGTLVTVSS
VL 2: QSALTQPASVSGSPGQSITISCTGTSSDVGAYNYVSWYQQHPGKAPKLMIYEVTKRPSGVPDRFSGSKSGNTASLTISGLQAEDEADYYCISFTASSTWAFGGGTKLTVLG
notes: Heterodimer of two scFv-Fc chains (human IgG1 Fc, hinge to CH3) made by knobs-into-hole engineering: T366Y in the CH3 of one monomer and Y407T in the other; also called BsAb; bispecific heterodimeric antibody
B1: the binding result in experiment [1] is “binds”.

B2: EpoR antibody V-1 (scFv-Fc homodimer) (Fc fusion)
VH: B1 VH 1
VL: B1 VL 1
For the molecule B2, the affinity in experiment [2], expressed as Kd, was 26 nM.

B3: EpoR antibody V-3 (scFv-Fc homodimer) (Fc fusion)
VH: B1 VH 2
VL: B1 VL 2
For the molecule B3, in experiment [3], the Kd was found to be 45 nM.

B4: 3D9 TpoR agonist antibody (Fc fusion, not shown: a dimerising Fc or GST)
scFv: MAQVQLVQSGAEVRKVGSSVKVSCKASRDTFNTYGISWVRQAPGQGLEWMGGIIPIFGTADYAQKFRGRVTITADESTSTAYMELSSLRSEDTAVYYCARDRKLGGSDYWGQGTLVTVSSGGGGSGGGGSGGGGSDIVMTQSPSSVSASVGDKVTITCRASQGLGRWLAWYQQEPGKAPKLLIYAASTLQRGVPSRFSGSGSGTDFTLTISSLQPEDFATYYCQQSNSFPWTFGQGTKLEIKR
On to B4, for which the “EC50, long-term proliferation assay (MTS) of Ba/F3-hMPL cells” value in experiment [4] was determined as 0.005 nM. Also, the “EC50, short-term fluorescence (FRET beta-lactamase) reporter assay” value in experiment [5] was approximately 0.01 nM.
